Assay: soluble on expression in E. coli; label from the status in PepcDB or PDB records

Sequence	soluble on expression in E. coli
MSTEQANGTTIEEKKDKVAEVTEKLDNLAVDTTNEANDAKQPARRGGFRGRGRGRGRGGHFYQPRPPYEDQMKKLEEDLASKKVIETGVKGHVKWFSVRGRYGFVARDKPTDENEDFFVHQTAITKSSTIKFYLRTLDDDEPVVFDIVEGLKGPEAANVTGPDGENVRGSRFARTLLTHWRTRGRGGARGRGGRGRGAPRQTRDQDGDEKDEKEKSDTIENSGDGETRGKRRTRRHGKLQPDAPSGEKGDGDAAAATTDAAPAAEKKKKRQRKGNKEPTTTTEQKEETAAPAKA	not soluble
MSLKTLLPTSTAGSLPKPSWLAQPEKLWSPWKLQDEELIEGKRDALRLSLNDQQQAGIDIVSDGEQTRQHFVTTFIEHLSGVDFEKRETVRIRNRYDASVPTVVGAVSREKPVFVEDAKFLRQQTRQPIKWALPGPMTMIDTLYDSHYKSREKLAWEFAKILNQEARELEAAGVDIIQFDEPAFNVFFDEVNDWGVATLEKAIEGLKCETAVHICYGYGIKANTDWKKTLGSEWRQYEEAFPKLQKSNIDLISLECHNSRVPMDLIELIRGKKVMVGAIDVATSAIETPEEVADTLRKALRFVDADKLYPCTNCGMAPLSRQVARSKLNALGAGAEIIRRELSVEGHHHHHH	soluble
SDQGLIFTNHHCGYGAIQSQSTVDHDYLRDGFVSRTMGEELPIPGLSVKYLRKIVKVTDKVEGQLKGITDEMERLRKAQEVCQELAKKENADENQLCIVEPFYSNNEYFLIVYDVFKDVRMVFAPPSSVGKFGGDTDNWMWPRHTGDFSVFRVYAGADNRPAEYSKDNKPYKPVYFAAVSMQGYKADDYAMTIGFPGSTDRYLTSWGVEDRIENENNPRIEVRGIKQGIWKEAMSADQATRIKYASKYAQSANYWKNSIGMNRGLARLDVIGRKRAEERAFADWIRKNGKSAVYGDVLSSLEKAYKEGAKANREMTYLSETLFGGTEVVRFAQFANALATNPDAHAGILKSLDDKYKDYLPSLDRKVLPAMLDIVRRRIPADKLPDIFKNVIDKKFKGDTKKYADFVFDKSVVPYSDKFHAMLKSMDKEKFAKAIEKDPAVELSKSVIAAARAIQADAMANAYAIEKGKRLFFAGLREMYPGRALPSDANFTMRMSYGSIKGYEPQDGAWYNYHTTGKGVLEKQDPKSDEFAVQENILDLFRTKNYGRYAENGQLHIAFLSNNDITGGNSGSPVFDKNGRLIGLAFDGNWEAMSGDIEFEPDLQRTISVDIRYVLFMIDKWGQCPRLIQELKLI	not soluble
MTAHPPRPELQIDIVSDVVCPWCIVGFRQLDQALAATGVLARLRWHPFELNPQMGPEGQNLREHIMEKYGSTPEQSAEARARLTAIGAELGFTFNFTDDSRIVNTFAAHQLLDWAEGQGRQHPLKQALFAAYFTDGRDVSDLSVLLDAVEAAGLDREAAQTALTSGAHQAPVREKQKFWAQHGISGVPSMVFGGKYLLTGAQGADTYAQVIQRCLAEAA	not soluble
MKLHLEIWRQAGPNSEGHFEPIDVNDAVPQMSVLELLDHVNTGLIEEGKEPFVFASDCREGICGTCGLLVNGRPHGLDKNKPSCQQRLDHVPDGSTLKIEPLRSAAYPVVKDLLVDRSALDRVLEKGGFVSINAGTAPDADTLHQNHESAELALDH	not soluble
MNSRMSKLRRSISRSVFQLNSSLSRQNSLNGLVDLPTMSNTTLVDKFATPSNFRQLRDLIRNNNELLAEVVTAFEEKAALDFHYSKTLKKISIRLHKLTQSVESGIDKGWTNVAEQFDIHATIHSNLGSAITEDIIQPLRSIQSNQQKTIRAADNFVEREIRKLKDKKDETQKMKRSLYVLAKELEKTENSAEREKAQPEKFALRRKKYKDQMIRSEDDYVWQTVDLEKQRRMTENVLRKGVESMESVERQRLAHCQTALGRYKRKIETLGPNLRQMFERHSNNLELAVDSVPEDYIQTIQPSTSAVNHITLIDLHAENFGEVMSSTRRRQNLERVSGVLDSELKRLYNNQTADVMVSNSKQISVLEFIEYLYYKLNDSINIVDGGQNRGFHRLSRFQHKIKDKSGLPMTILTIPLSGDNNSLPPPCLSMEASTAYPSPRGSGEYEEYEKISDDGFYSTTTTSSNGGPIRTTTTFDEPTSSPPTICRVLYDFEPKHADEIEIREGQCVLVEDRIGDDWLIGHVISQHDNSSIDPRSGRFPTTYVSLRQ	not soluble
AKQAAQSTFNSFHEWAKQAEAMRNPSRMDIYKIYKQDAPHSHPMSDEQQEEFLHTLKALNGKNGIEVRTQDHDSVRNKKDRNLDKYIAESPDAKRFFYRIIPKHERREDKNQGRLTIGVQPQYATQLTRAMATLIGKESAITHGKVIGPACHGQMTDSAVLYINGDVAKAEKLGEKLKQMSGIPLDAFVEHTPLSMQSLSKGLSYAESILGDTRGHGMSRAEVISDALRMDGMPFLARLKLSLSANGYDPDNPALRNTK	soluble
MADPNGFLNYPRNDNPYRELAERIKDFAELQVPLSTEERQKQAARCMHCDVPFCHQGIFYGGKRAVSGCPNDNHIPEWNDLIYRGLQRKAYERLILTNPFPEFTGRVCPAPCEKSCAEALNGAGVTIKDNERFLGDLGNDEGWVAEIGKAAEPTGYKIAIIGSGPAGLSAAWRLNQLGHSVTVFEKSDRLGGLLMYGIPNMKLDKKVVQKRIDLMTELGVTFVTNTEIGKTISYEDLSVNFDRIILAIGAGIPRDLNISGREAVGIRFAIDFLTETTKTVLEEGEDNISQSLKGKKVVVIGGGDTGNDCIGTAVRLGAASVSQLEITPSLPTDRLDNNPWPEWPMTLRAGYGQKEAEFVGNTDLITYQMTATAFQTNAEGQLTGLKVAKVGPDFKALEGTEQVIEADLVLLAMGFVGTDTGLLDKFGIQEIYDDYRTNNDKVLVAGDARRGPSLVIWAIREGRKTAEIVDEQLIKVATALEHHHHHH	soluble
VAIRNFDISKISGEWYSIFLASDVKEKIEENGSMRVFVDVIRALDNSSLYAEYQTKVNGECTEFPMVFDKTEEDGVYSLNYDGYNVFRISEFENDEHIILYLVNFDKDRPFQLFEFYAREPDVSPEIKEEFVKIVQKRGIVKENIIDLTKIDRCFQLRG	soluble
KAELKMLEAIEEDLNTRFADVDRKQLRLGAAGTFQKQEDADQWYKMVKDTFENEIDDIYYDSLSFSIGCHVGPNAIGIGISVVTRDEK	not soluble
MSLDRSNTVELHAAGAQSAQGARPDQEDEYIILTPGGSPNEIGDSIAFFAVFDGHGTGIVSNHAKEHIPLLLFESDEFRSGNYERAMQAAIDKEDELLLQGFREGQNFFATSGSTASLALVDMKNGVLVVGNIGDSHILMAERDPENGQVKSIERLTTSHKPESADEKARIEKAGGHVHSHHDISRIGSLNMSRALGDLQYKTPLISAAAAPKTEGQKFACAPDPQNVSSQDGAQAGTGRDDFITVEMSFRRIDLHKEKQYLLALTTDGVTNALDDGKIMNGIAEMFNTGSKADEVARKVVDQAASTEYADNATCVTVFLNGTEARLAEGHHHHHH	soluble
MAHHHHHHMEDFLTKLKKISEQYNNLLLEKKIIDKRIANIGENIRKYEETREKSLEDVELKKNQLLKNKNKHIIMCQKMEQLNGKLNEILIRKQSIDDDEEKKVINKQIHTVNNTYVLLKHVQNLNDAMLKDEGNRYYKLITENIHSKSFSNRKTLNILNSFLRKSRANIQERGSEGAKSSTPPAAIHSANYFKIIQTNDIVQKLLDLFSGDHTALTIDKQQFLFVLLMNVLRKIACASEMAIPPEDCNSRHHVIYNFLHNKYILHL	soluble
GHMAIQRRIRRVKTVQMTTNSPIHRSGSVLEPGNWQEYDPFLLLMEDIFERGTFDVHPHRGIETVTYVISGELEHFDSKAGHSTLGPGDVQWMTAGRGVVHKEDPASGSTVHSLQLWVNLPSAYKMTEPRYQNLRSKDMPVRKEEGATIRVFSGSSKGVKAPTKNIVPVTMVEMIVEPGTTVVQDLPGHYNGFLYILEGSGVFGADNIEGKAGQALFFSRHNRGEETELNVTAREKLRLLLYAGEPVNEPVVAYGPFVMNTPEQIREAIRDYQEGRFGR	soluble
MNNDNKRSAGGLGLVGDIGGTNARFALWRGQRLESIEVLACADYPRPELAVRDYLARIGESVANIDSVCLACAGPVGAADFRFTNNHWVINRAAFREELGLDHLLLVNDFSTMAWAASRLGADELVQVRAGSAQADRARLIIGPGTGLGVGSLLPLGGGRWEVLPCEGGHVDLPVTSPRDFALWQGLQARYGHVSAERALSGNGLLALYEISCALDGVAVRASSAAEVGALAMAGDAQADAVLEHFFLWLARVAGNAVLTVGALGGVYITGGIVPRFLERFIASGFAEAFASRGKTSGAYLQDVPVWVMTAEHPGLLGAGVALQQALDAEG	not soluble
MTFTGLPPEDVPALMTGAVIPHPSVAGRADAYLPSPCIQNHAANLAFLPDGTLSCVWFGGTMEGMRDISIYMSRLPPGSGRWSEPEKMSDDPEKSEQNPLIFNAPDGKTWLLYTSQTSGNQDGSIVKCRISDDGGKTFGPVQILCDSPGTFVRQQIVVNDRGDWLLPIFRCVGLEGQRWSGDADTAAVLISRDGGASWQMRDIPDSIGAVHMNILPLGGCEMIAFYRNRFAETILSSRSADGGETWSPPEPTELPNNNSSIQATVLDNGGIAMVYNHSNATMSDARRQSLYDEIEGDECGENAAVVADAGRKAVWGVPRAPLSLAISRDGGRTFPHRIDLDTGDGFCLSNNSKDSLNREFSYPSVIEGSDGTLHVAYTYYRRALEHHHHHH	not soluble
MAHHHHHHMSSTNPSGCAGLVAASVTTAASTGTTAAATLAARSPTPPSVPASNSNNSGPGAAVASAPARWRIPSFRPQEYLRGYLFGGVGMGVPELQQYVGKVEPMIREMLEHTQQVHSIHSLRSHFQKSDEPGDEEVVLRWPSHLLQFMEFYNTTRALEDPENQDAGVKEAYLGLMRRLYYTEPRRRDCIPTKYLDPRSLLLVRMWWSMDAAQRKQWPLSLMDHKALNVIQIKDRYLCSYVMTAMQAKQYLMRLVARPEMRAMIDQWRRERNDGSTGAGSPQRSKL	soluble
DRTTYYSILGLTSNATSSEVHKSYLKLARLLHPDKTKSDKSEELFKAVVHAHSILTDEDQKLRYDRDLKIKGLHTYQPKK	not soluble
QTPVYLDTSKPIEERVKDALSRMTLEEKVKMTHAQSKFSSPGVPRLGIPEVWATDGPHGIRPEVLWDEWDQAGWTNDSCIAYPALTCLSATWNPEMSYLYGKSIGEEARYRKKDILLGPGVNIYRTPLNGRNFEYMGEDPYLSSMMVVPYIKGVQENGVAACVKHYALNNQEFNRHTTNVHLSDRALYEIYLPAFKAAVQEGGAWAIMGAYNLYSFSEDTDSGKLYKTQHACHNKRLLQDILRKEWGFDGVVVSDWGGVHDTFQAISNGLDMEFGSWTNGLSAGTRNAYDNYYLAHPYLKLIQDGTVGTKELDEKVSNILRLIFRTSMNPH	not soluble
AYGKKSQTEVISFEEVVHPAEKIREALQVGKNEAIYELIRRRMLDGEPMTVEKIYLPQAYVQGHTKQDFEGSLFCLIEKNVEIAYSHQEIEAILVEAEISELLNVPVGQPLLQVHSITYALDATPILYDVSLYRADRYTFKNTLTRYSPSENNQVELGGSWNE	soluble
MGSDKIHHHHHHMCIMASCLSPNWSVFDIDQSQTLQVAVQEAHARSQPLAIRGGGSKTFYGRQTPACDLLDLGGHRGIIDYAPNELFITLRAGTSLQALEAQLAEAGQMLPFEPPHFGPAATIGGTLACGFSGPRRPYAGSARDMVLGMRILNGQGEILRFGGQVMKNVAGYDVSRLMVGALGTLGVLLEVSLKVLPRPDSTVTLVWPMDPVTAVQRMNDWAGQPLPLSATAYDGEHLYIRLSGTGSAVRAAQTRLGGERLPDAEAAAFWVALREQRNDFFQGDAPLWRLAVAPATPPLPLGDQTLIEWGGGQRWLRGALDATALRQLAAEHGGHATLFRGGNRRGEVFHPLAPPLLAMQQRLKAAFDPRGILNSGRLYATL	not soluble
